Source: PMC3719173 (Nature structural & molecular biology, 2010)

T1: GST-Rev-erbα LBD (human)
T1 sequence (P20393 whole entry, looked up): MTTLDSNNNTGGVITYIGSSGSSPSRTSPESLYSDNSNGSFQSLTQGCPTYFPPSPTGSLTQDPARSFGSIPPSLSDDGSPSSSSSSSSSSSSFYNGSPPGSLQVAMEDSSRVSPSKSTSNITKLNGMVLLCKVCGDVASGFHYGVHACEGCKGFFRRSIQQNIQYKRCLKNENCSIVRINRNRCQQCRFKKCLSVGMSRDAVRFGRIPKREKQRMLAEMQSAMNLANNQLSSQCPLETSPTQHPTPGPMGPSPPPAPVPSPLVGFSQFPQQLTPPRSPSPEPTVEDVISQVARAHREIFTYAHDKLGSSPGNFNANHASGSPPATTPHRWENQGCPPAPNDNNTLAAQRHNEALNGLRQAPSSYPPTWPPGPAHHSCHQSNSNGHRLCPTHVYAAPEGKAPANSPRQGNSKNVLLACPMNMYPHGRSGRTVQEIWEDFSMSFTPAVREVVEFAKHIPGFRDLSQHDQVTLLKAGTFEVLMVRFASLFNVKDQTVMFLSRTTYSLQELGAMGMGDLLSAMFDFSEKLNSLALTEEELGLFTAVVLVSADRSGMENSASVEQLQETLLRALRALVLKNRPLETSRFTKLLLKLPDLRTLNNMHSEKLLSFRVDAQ

B1: human Rev-erbα LBD (281–614 Δ324–422) (domain or fragment, UniProt P20393 281-614, looked up)
chain: PEPTVEDVISQVARAHREIFTYAHDKLGSSPGNFNANHASGSPYPHGRSGRTVQEIWEDFSMSFTPAVREVVEFAKHIPGFRDLSQHDQVTLLKAGTFEVLMVRFASLFNVKDQTVMFLSRTTYSLQELGAMGMGDLLSAMFDFSEKLNSLALTEEELGLFTAVVLVSADRSGMENSASVEQLQETLLRALRALVLKNRPLETSRFTKLLLKLPDLRTLNNMHSEKLLSFRVDAQ

Key:
GST-Rev-erbα LBD (human) = target: T1, GST-Rev-erbα LBD (human); assay: FRET or BRET
Rev-erbα LBD = settings: NCoR ID1 peptide; cited from earlier work
crystal structure = target: the molecule itself; assay: crystal structure
[1] = target: B1; assay: crystal structure

| IC50 (GST-Rev-erbα LBD (human)) | Molecule | other results |
| --- | --- | --- |
| 250 nM | NCoR (2040–2065) −1H2054A peptide (from UniProt O75376 2040-2065) | – |
| 540 nM | NCoR (2040–2065) −9His2046A peptide (from UniProt O75376 2040-2065) | – |
| – | C=CC1=C(C)c2cc3[n-]c(cc4[n-]c(cc5nc(cc1n2)C(C)=C5C=C)c(C)c4CCC(=O)O)c(CCC(=O)O)c3C.[Fe+2] [heme] | Effect of heme binding on interaction of Rev-erbα LBD with ID1 peptide (Rev-erbα LBD): destabilizes the interaction of Rev-erbα with the ID1 peptide |
| 19400 nM | NCoR (2040–2065) +5Ile2059 alanine mutant peptide (from UniProt O75376 2040-2065) | – |
| 220 nM | control wild type NCoR ID1 (2040–2065) peptide (from UniProt O75376 2040-2065) | – |
| 50300 nM | NCoR (2040–2065) +1Ile2055 alanine mutant peptide (from UniProt O75376 2040-2065) | – |
| 8100 nM | NCoR (2040–2065) +4Ile2058 alanine mutant peptide (from UniProt O75376 2040-2065) | – |
| 600 nM | NCoR (2040–2065) −4Leu2051A peptide (from UniProt O75376 2040-2065) | – |
| 570 nM | NCoR (2040–2065) −7Leu2048A peptide (from UniProt O75376 2040-2065) | – |
| 1900 nM | NCoR (2040–2065) +9F2063A peptide (from UniProt O75376 2040-2065) | – |
| – | B1 | binding result (crystal structure): binds |
| – | THRLITLADHICQIITQDFAR [NCoR CoRNR1 peptide (2045–2065)] | binding result [1]: binds |
